Source: paper PMC9482650, “Quantitative fragmentomics allow affinity mapping of interactomes” (Nature Communications, 2022)

T1: TJP3_3, O95049
T1 sequence (O95049 375-456, limits assumed, looked up): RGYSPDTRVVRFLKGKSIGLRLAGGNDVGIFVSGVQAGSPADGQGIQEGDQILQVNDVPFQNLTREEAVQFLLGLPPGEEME

T2: SNTG2, Q9NY99
T2 sequence (Q9NY99 68-166, limits assumed, looked up): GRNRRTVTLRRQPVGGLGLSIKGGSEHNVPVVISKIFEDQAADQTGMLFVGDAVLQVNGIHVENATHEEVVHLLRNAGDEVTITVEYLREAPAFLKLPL

T3: PDZD7_3, Q9H5P4
T3 sequence (Q9H5P4 857-944, limits assumed, looked up): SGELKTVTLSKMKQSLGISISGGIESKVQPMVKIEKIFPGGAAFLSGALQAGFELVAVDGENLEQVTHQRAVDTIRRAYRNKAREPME

T4: FRMPD1, Q5SYB0
T4 sequence (Q5SYB0 52-145, limits assumed, looked up): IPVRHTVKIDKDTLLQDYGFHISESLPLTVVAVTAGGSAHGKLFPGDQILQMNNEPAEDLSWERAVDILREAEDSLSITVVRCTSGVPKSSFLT

T5: DVL3, Q92997
T5 sequence (Q92997 244-331, limits assumed, looked up): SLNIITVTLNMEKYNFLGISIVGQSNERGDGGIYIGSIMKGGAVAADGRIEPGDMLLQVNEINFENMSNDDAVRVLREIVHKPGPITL

T6: PTPN13_1, Q12923
T6 sequence (Q12923 1088-1188, limits assumed, looked up): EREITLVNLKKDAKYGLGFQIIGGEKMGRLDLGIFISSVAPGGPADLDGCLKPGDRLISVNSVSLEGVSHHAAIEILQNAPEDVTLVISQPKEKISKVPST

T7: RHPN1, Q8TCX5
T7 sequence (Q8TCX5 508-602, limits assumed, looked up): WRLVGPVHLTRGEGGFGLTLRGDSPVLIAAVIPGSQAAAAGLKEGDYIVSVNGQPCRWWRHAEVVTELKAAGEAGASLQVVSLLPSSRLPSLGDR

T8: LIN7C, Q9NUP9
T8 sequence (Q9NUP9 88-185, limits assumed, looked up): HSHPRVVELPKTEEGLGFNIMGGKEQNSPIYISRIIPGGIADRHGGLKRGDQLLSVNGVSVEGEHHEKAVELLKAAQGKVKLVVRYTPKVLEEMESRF

T9: SNTA1, Q13424
T9 sequence (Q13424 82-180, limits assumed, looked up): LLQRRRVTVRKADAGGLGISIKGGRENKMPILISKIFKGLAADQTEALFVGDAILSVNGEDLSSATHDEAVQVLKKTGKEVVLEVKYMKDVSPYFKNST

T10: TX1BP3, O14907
T10 sequence (O14907 10-122, limits assumed, looked up): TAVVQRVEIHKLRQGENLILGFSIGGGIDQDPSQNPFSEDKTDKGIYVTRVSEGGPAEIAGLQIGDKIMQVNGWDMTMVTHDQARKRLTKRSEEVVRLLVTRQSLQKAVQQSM

T11: APBA3_1, O96018
T11 sequence (O96018 389-490, limits assumed, looked up): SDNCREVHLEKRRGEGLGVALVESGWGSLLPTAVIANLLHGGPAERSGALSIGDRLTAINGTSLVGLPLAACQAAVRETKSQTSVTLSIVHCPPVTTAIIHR

T12: HTRA3, P83110
T12 sequence (P83110 354-453, limits assumed, looked up): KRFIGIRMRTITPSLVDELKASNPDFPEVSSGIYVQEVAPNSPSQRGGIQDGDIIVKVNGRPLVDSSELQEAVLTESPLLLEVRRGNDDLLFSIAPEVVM

B1: UQCRC2, P22695 (peptide)
chain: LGHTPFVDEL

The binders below were run against T1, TJP3_3, O95049 (assay: holdup assay). Settings: plain residues with an end cap or a label only (N-terminal biotin on a linker: ado-ado).
Set-up: key: below the threshold = too weak to quantify, mostly under pKd 3.1 to 4

Row | pKd | Binder
1 | below the threshold | B1

Each binder was assayed against ARHGEF12, Q9NZN5-2 (assay: holdup assay). Settings: plain residues with an end cap or a label only (N-terminal biotin on a linker: ado-ado).
Sequence of ARHGEF12, Q9NZN5-2 (Q9NZN5 other isoform, or with tags, fused parts or gaps): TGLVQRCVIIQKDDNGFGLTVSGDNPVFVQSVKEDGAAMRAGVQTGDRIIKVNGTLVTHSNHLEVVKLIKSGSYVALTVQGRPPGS
Set-up: key: below the threshold = too weak to quantify, mostly under pKd 3.1 to 4

Row | pKd | Binder
2 | below the threshold | B1

These binders were tested against MAST1, Q9Y2H9 (assay: holdup assay). Settings: plain residues with an end cap or a label only (N-terminal biotin on a linker: ado-ado).
Sequence of MAST1, Q9Y2H9 (Q9Y2H9 962-1065): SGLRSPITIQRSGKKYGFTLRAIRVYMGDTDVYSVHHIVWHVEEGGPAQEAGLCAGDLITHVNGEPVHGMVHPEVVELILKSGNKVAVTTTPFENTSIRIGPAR
Set-up: key: below the threshold = too weak to quantify, mostly under pKd 3.1 to 4

Row | pKd | Binder
3 | 4.12 | B1

What follows are binders tested against T2, SNTG2, Q9NY99 (assay: holdup assay). Settings: plain residues with an end cap or a label only (N-terminal biotin on a linker: ado-ado).
Set-up: key: below the threshold = too weak to quantify, mostly under pKd 3.1 to 4

Row | pKd | Binder
4 | below the threshold | B1

The binders below were run against T3, PDZD7_3, Q9H5P4 (assay: holdup assay). Settings: plain residues with an end cap or a label only (N-terminal biotin on a linker: ado-ado).
Set-up: key: below the threshold = too weak to quantify, mostly under pKd 3.1 to 4

Row | pKd | Binder
5 | below the threshold | B1

Each binder was assayed against T4, FRMPD1, Q5SYB0 (assay: holdup assay). Settings: plain residues with an end cap or a label only (N-terminal biotin on a linker: ado-ado).
Set-up: key: below the threshold = too weak to quantify, mostly under pKd 3.1 to 4

Row | pKd | Binder
6 | below the threshold | B1

These binders were tested against T5, DVL3, Q92997 (assay: holdup assay). Settings: plain residues with an end cap or a label only (N-terminal biotin on a linker: ado-ado).
Set-up: key: below the threshold = too weak to quantify, mostly under pKd 3.1 to 4

Row | pKd | Binder
7 | below the threshold | B1

What follows are binders tested against T6, PTPN13_1, Q12923 (assay: holdup assay). Settings: plain residues with an end cap or a label only (N-terminal biotin on a linker: ado-ado).
Set-up: key: below the threshold = too weak to quantify, mostly under pKd 3.1 to 4

Row | pKd | Binder
8 | below the threshold | B1

Each binder was assayed against T7, RHPN1, Q8TCX5 (assay: holdup assay). Settings: plain residues with an end cap or a label only (N-terminal biotin on a linker: ado-ado).
Set-up: key: below the threshold = too weak to quantify, mostly under pKd 3.1 to 4

Row | pKd | Binder
9 | below the threshold | B1

What follows are binders tested against T8, LIN7C, Q9NUP9 (assay: holdup assay). Settings: plain residues with an end cap or a label only (N-terminal biotin on a linker: ado-ado).
Set-up: key: below the threshold = too weak to quantify, mostly under pKd 3.1 to 4

Row | pKd | Binder
10 | below the threshold | B1

What follows are binders tested against PTPN3, P26045 (assay: holdup assay). Settings: plain residues with an end cap or a label only (N-terminal biotin on a linker: ado-ado).
Sequence of PTPN3, P26045 (P26045 505-587): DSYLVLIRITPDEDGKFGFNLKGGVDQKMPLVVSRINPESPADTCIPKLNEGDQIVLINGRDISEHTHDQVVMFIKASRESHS
Set-up: key: below the threshold = too weak to quantify, mostly under pKd 3.1 to 4

Row | pKd | Binder
11 | 4.1 | B1

These binders were tested against Inadl_5, Q8NI35 (assay: holdup assay). Settings: plain residues with an end cap or a label only (N-terminal biotin on a linker: ado-ado).
Sequence of Inadl_5, Q8NI35 (Q8NI35 673-780): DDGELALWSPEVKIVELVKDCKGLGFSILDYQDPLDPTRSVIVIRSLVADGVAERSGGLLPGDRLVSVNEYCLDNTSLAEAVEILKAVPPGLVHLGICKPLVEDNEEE
Set-up: key: below the threshold = too weak to quantify, mostly under pKd 3.1 to 4

Row | pKd | Binder
12 | below the threshold | B1

What follows are binders tested against FRMPD2_2, Q68DX3 (assay: holdup assay). Settings: plain residues with an end cap or a label only (N-terminal biotin on a linker: ado-ado).
Sequence of FRMPD2_2, Q68DX3 (Q68DX3 944-1038): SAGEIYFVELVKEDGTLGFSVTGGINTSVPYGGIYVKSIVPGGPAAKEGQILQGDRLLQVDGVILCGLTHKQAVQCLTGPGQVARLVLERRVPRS
Set-up: key: below the threshold = too weak to quantify, mostly under pKd 3.1 to 4

Row | pKd | Binder
13 | below the threshold | B1

The binders below were run against GRIP2_3, Q9C0E4 (assay: holdup assay). Settings: plain residues with an end cap or a label only (N-terminal biotin on a linker: ado-ado).
Sequence of GRIP2_3, Q9C0E4 (Q9C0E4 238-339): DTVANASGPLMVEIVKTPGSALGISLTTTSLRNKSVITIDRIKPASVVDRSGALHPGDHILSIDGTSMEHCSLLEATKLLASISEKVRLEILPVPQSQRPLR
Set-up: key: below the threshold = too weak to quantify, mostly under pKd 3.1 to 4

Row | pKd | Binder
14 | below the threshold | B1

What follows are binders tested against FRMPD2_1, Q68DX3 (assay: holdup assay). Settings: plain residues with an end cap or a label only (N-terminal biotin on a linker: ado-ado).
Sequence of FRMPD2_1, Q68DX3 (Q68DX3 770-861): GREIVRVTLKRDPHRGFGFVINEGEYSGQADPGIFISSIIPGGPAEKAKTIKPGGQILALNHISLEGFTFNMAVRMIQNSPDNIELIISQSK
Set-up: key: below the threshold = too weak to quantify, mostly under pKd 3.1 to 4

Row | pKd | Binder
15 | below the threshold | B1

What follows are binders tested against DLG2_3, Q15700 (assay: holdup assay). Settings: plain residues with an end cap or a label only (N-terminal biotin on a linker: ado-ado).
Set-up: key: below the threshold = too weak to quantify, mostly under pKd 3.1 to 4

Row | pKd | Binder
16 | below the threshold | B1

Each binder was assayed against T9, SNTA1, Q13424 (assay: holdup assay). Settings: plain residues with an end cap or a label only (N-terminal biotin on a linker: ado-ado).
Set-up: key: below the threshold = too weak to quantify, mostly under pKd 3.1 to 4

Row | pKd | Binder
17 | below the threshold | B1

The binders below were run against T10, TX1BP3, O14907 (assay: holdup assay). Settings: plain residues with an end cap or a label only (N-terminal biotin on a linker: ado-ado).
Set-up: key: below the threshold = too weak to quantify, mostly under pKd 3.1 to 4

Row | pKd | Binder
18 | below the threshold | B1

The binders below were run against T11, APBA3_1, O96018 (assay: holdup assay). Settings: plain residues with an end cap or a label only (N-terminal biotin on a linker: ado-ado).
Set-up: key: below the threshold = too weak to quantify, mostly under pKd 3.1 to 4

Row | pKd | Binder
19 | below the threshold | B1

The binders below were run against FRMPD3, Q5JV73 (assay: holdup assay). Settings: plain residues with an end cap or a label only (N-terminal biotin on a linker: ado-ado).
Sequence of FRMPD3, Q5JV73 (Q5JV73 12-100): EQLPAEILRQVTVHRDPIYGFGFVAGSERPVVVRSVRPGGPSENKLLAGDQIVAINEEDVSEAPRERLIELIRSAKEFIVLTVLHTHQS
Set-up: key: below the threshold = too weak to quantify, mostly under pKd 3.1 to 4

Row | pKd | Binder
20 | below the threshold | B1

Each binder was assayed against Inadl_4, Q8NI35 (assay: holdup assay). Settings: plain residues with an end cap or a label only (N-terminal biotin on a linker: ado-ado).
Sequence of Inadl_4, Q8NI35 (Q8NI35 547-651): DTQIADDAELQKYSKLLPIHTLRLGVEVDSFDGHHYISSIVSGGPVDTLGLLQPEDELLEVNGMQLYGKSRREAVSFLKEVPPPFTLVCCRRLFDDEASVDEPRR
Set-up: key: below the threshold = too weak to quantify, mostly under pKd 3.1 to 4

Row | pKd | Binder
21 | below the threshold | B1

These binders were tested against T12, HTRA3, P83110 (assay: holdup assay). Settings: plain residues with an end cap or a label only (N-terminal biotin on a linker: ado-ado).
Set-up: key: below the threshold = too weak to quantify, mostly under pKd 3.1 to 4

Row | pKd | Binder
22 | below the threshold | B1

Each binder was assayed against GORASP1, Q9BQQ3 (assay: holdup assay). Settings: plain residues with an end cap or a label only (N-terminal biotin on a linker: ado-ado).
Sequence of GORASP1, Q9BQQ3 (Q9BQQ3 1-208): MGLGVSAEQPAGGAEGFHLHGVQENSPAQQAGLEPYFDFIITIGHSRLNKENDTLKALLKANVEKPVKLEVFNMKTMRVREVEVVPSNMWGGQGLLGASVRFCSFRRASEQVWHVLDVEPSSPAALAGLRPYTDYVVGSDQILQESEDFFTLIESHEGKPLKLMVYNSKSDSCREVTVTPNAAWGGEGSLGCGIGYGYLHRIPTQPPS
Set-up: key: below the threshold = too weak to quantify, mostly under pKd 3.1 to 4

Row | pKd | Binder
23 | below the threshold | B1

What follows are binders tested against PDZRN4_1, Q6ZMN7 (assay: holdup assay). Settings: plain residues with an end cap or a label only (N-terminal biotin on a linker: ado-ado).
Sequence of PDZRN4_1, Q6ZMN7 (Q6ZMN7 213-318): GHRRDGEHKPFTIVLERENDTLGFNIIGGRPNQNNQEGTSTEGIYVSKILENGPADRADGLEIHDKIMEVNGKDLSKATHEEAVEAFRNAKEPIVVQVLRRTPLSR
Set-up: key: below the threshold = too weak to quantify, mostly under pKd 3.1 to 4

Row | pKd | Binder
24 | below the threshold | B1

Each binder was assayed against MAGI2_4, Q86UL8 (assay: holdup assay). Settings: plain residues with an end cap or a label only (N-terminal biotin on a linker: ado-ado).
Sequence of MAGI2_4, Q86UL8 (Q86UL8 772-865): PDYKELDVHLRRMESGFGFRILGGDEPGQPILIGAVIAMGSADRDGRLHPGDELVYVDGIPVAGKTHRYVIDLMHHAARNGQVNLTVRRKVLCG
Set-up: key: below the threshold = too weak to quantify, mostly under pKd 3.1 to 4

Row | pKd | Binder
25 | below the threshold | B1
